Test results published in patent publication US11634743B2, “Coupled, self-sufficient biotransformation of chenodeoxcholic acid to ursodeoxycholic acid and novel enzyme mutants applicable in said process” (Pharmazell GmbH, priority 2016, dated 2023).

Tests used:
[1] = Coupled one-step conversion of CDCA to UDCA with isolated enzymes, NAD(H) as cofactor; type: biochemical; conditions: 25 mM CDCA, 100 mM KPi pH 7.0, 25° C., 0.25 mM NAD^+
[2] = Coupled one-step conversion of CDCA to UDCA with isolated enzymes, NADP(H) as cofactor; type: biochemical; conditions: 10 mM CDCA, 100 mM KPi pH 6.0, 25° C., 0.5 mM NADP^+
Description: The enzymatic synthesis of UDCA with isolated enzymes was performed standardized in 100 mM KPi buffer (pH 7.0) at 25° C. The reaction mixtures were magnetically stirred at 500 to 700 rpm. The cofactor concentration was 0.25 mM NAD^+. For the biotransformation with NAD^+ as cofactor, the reaction was performed with […] enzyme, and for the biotransformation with NADP^+ as cofactor the reaction was performed with 0.5 U/ml 7α-HSDH and 1.0 U/ml 7β-HSDH. After pre-determined time intervals, samples were taken and analyzed by means of HPLC.
In a second experiment, the biotransformation was performed in a one-step process with NADP(H) as cofactor. The enzymatic conversion of 10 mM CDCA was performed in 100 mM KPi buffer pH 6.0 at 25° C. with the 7β-HSDH [G39S/R64E] (SEQ ID NO:45) and the Cd7α-HSDH from C. difficile (SEQ ID NO:35) in a one-step process. The cofactor concentration was 0.5 mM NADP^+. For the 7-KLCA reduction, a […] 7β-HSDH from C. aerofaciens was applied and for the CDCA oxidation step the 7α-HSDH from C. difficile was applied. As illustrated a one-step conversion of CDCA in a directly coupled oxidation and reduction reaction with a NADP^+-dependent 7β-HSDH is operable.

[3] = Small-scale biotransformation of CDCA to 7-KLCA with Cd7α-HSDH and NAD(P)H oxidase, HPLC; type: biochemical; conditions: 10 mM CDCA, NADP^+ regenerated by NAD(P)H oxidase, after 18.5 h
Description: FIG. 5: Biotransfomation of CDCA (10 mM) in aqueous system (KPi, pH 7.0), containing 5 U Cd7α-HSDH and 50 U NOX during 18.5 hours. After 3.5 h and 7 h additional 50 U NOX were added to the reaction. Concentration of CDCA (-∘-CDCA) and 7-KLCA (-⋅-7-KLCA) were determined by HPLC.
HPLC analysis was performed on a Purospher® STAR RP-18 column (Merck, Germany) on a HPLC LC-2010AHT-System (Shimadzu, Japan) at a flow rate of 1 ml/min. The mobile phase consisted of two eluents. Eluent A was distilled water (pH 2.6 adjusted with orthophosphoric acid 85%) and eluent B HPLC-grade acetonitrile. The starting condition for the gradient program was 65% eluent A and 35% eluent B. The system was monitored by UV detector at 200 nm. Totally, 20 μl samples with a bile acid concentration in the range of 1 mg/ml were analyzed. Authentic samples of CDCA, 7-KLCA and UDCA at the same concentration were used as references.
For the biotransformation in a small-scale 10 mM CDCA in KPi-buffer (100 mM, pH 7.0), 0.1 mM NADP^+, 0.5 U mL^−1 Cd7α-HSDH and 5 U mL^−1 NADPH-oxidase were incubated at 25° C. The biotransformation were done in glass vials with a stirring bar in it and a stirrer speed of 500 rpm for 18 hours. Samples were taken periodically and diluted with methanol-water (pH 2.6) (9:1 v/v) for H PLC-analysis. […]

[4] = CDCA as substrate
[5] = Photometric activity assay of E. coli 7α-HSDH wildtype and mutants (crude extracts); type: biochemical; conditions: crude extract, substrate CDCA
Description: The reaction mixture contained in a total volume of 1 ml:
880 μl 50 mM potassium phosphate (KPi) buffer, pH 8.0
100 μl 100 mM CDCA (dissolved in 50 mM KPi, pH 8)
10 μl Enzyme solution (in buffer as above, in the range of 2 to 6 U/ml)
10 μl 50 mM NAD^+ or NADP^+ (dissolved in ddH2O)
An increase of extinction was determined at 340 nm over a period of 30 seconds and the activity was expressed as enzyme unit (1 U corresponds to a conversion of 1 μmol NAD(P)H/min). The molar extinction coefficient was 6.22 mM^−1×cm^−1.
The photometric activity assay of the crude extract was performed by means of a UV-1700 spectrophotometer (Shimadzu, Japan) (see method described above under item 1.7). In Table 8, the specific activity values of individual mutants as obtained for NAD^+ and NADP^+ are summarized.

| Molecule | activity with NADP^+ [5] [U/mg] | activity with NAD^+ [5] [U/mg] | other results |
| --- | --- | --- | --- |
| 7β-HSDH [G39E]: NAD(H)-dependent 7β-HSDH mutant G39E from C. aerofaciens, SEQ ID NO:48 (C-His-Tag) (protein, C-terminal His-tag; 7beta-HSDH Mutante [G39E] C. aerofaciens + C-terminal His-Tag) MNLREKYGEWGLILGATEGVGKAFCEKIAAGGMNVVMVERREEKLNVLAGEIRETYGVETKVVRADFSQPGAAETVFAATEGLDMGFMSYVACLHSFGKIQDTPWEKHEAMINVNVVTFLKCFHHYMRIFAAQDRGAVINVSSMTGISSSPWNGQYGAGKAFILKMTEAVACECEGTGVDVEVITLGTTLTPSLLSNLPGGPQGEAVMKIALTPEECVDEAFEKLGKELSVIAGQRNKDSVHDWKANHTEDEYIRYMGSFYRDLEHHHHHH | – | – | one-step conversion of CDCA in directly coupled oxidation and reduction [1]: operable |
| 7β-HSDH [G39S/R64E]: NADP+-dependent 7β-HSDH double mutant G39S/R64E from C. aerofaciens, SEQ ID NO:45 (protein, 7beta-HSDH Mutant [G39S/R64E] C. aerofaciens + C-terminal His-tag) MNLREKYGEWGLILGATEGVGKAFCEKIAAGGMNVVMVSRREEKLNVLAGEIRETYGVETKVVEADFSQPGAAETVFAATEGLDMGFMSYVACLHSFGKIQDTPWEKHEAMINVNVVTFLKCFHHYMRIFAAQDRGAVINVSSMTGISSSPWNGQYGAGKAFILKMTEAVACECEGTGVDVEVITLGTTLTPSLLSNLPGGPQGEAVMKIALTPEECVDEAFEKLGKELSVIAGQRNKDSVHDWKANHTEDEYIRYMGSFYRDLEHHHHHH | – | – | one-step conversion of CDCA in directly coupled oxidation and reduction [2]: operable |
| Cd7α-HSDH: NADP+-dependent 7α-hydroxysteroid dehydrogenase from Clostridium difficile (DSM 12056), SEQ ID NO: 34; with N-His-tag SEQ ID NO: 35 (protein, Clostridium difficile) MEKLQGKIAVVTAATKGIGLASAEILAKNGATVYLAARSEELAHEVINKISAEGGCAKFVYFNAREEETFTSMIEEVVKKEGKIDILVNNFGSTNPSLDKDLVTGDTDNFFDTVNTNLKSVYLPCKAAIPHMIKNGKGSIVNISSIGSVLPDLSRIAYCVSKAAINSLTQNIATQYAKDNVRCNAVLPGLIATKAALDNMSPEFIKEFLKHVPLNRIGEPDDIAKAVLFYASDDSSFITGDLLEVAGGFGLPTPQFADNILG | – | – | conversion of CDCA to 7-KLCA [3]: > 99%; conversion of CDCA to 7-KLCA ([3]; listed as enzyme from C. difficile): < 99%; one-step conversion of CDCA in directly coupled oxidation and reduction [2]: operable; activity ([4]; 45° C.): 11 U mg^−1; activity (maximum) ([4]; 60° C.): 77 U mg^−1; temperature of maximum activity ([4]; investigated between 15 and 65° C.): 60 °C |
| 7α-HSDH [D42G/I43R]: NADP+-dependent double mutant D42G/I43R of E. coli 7α-HSDH, SEQ ID NO: 41 (N-His-Tag) (protein, N-terminal His-tag; 7alpha HSDH E. coli mutant D42G/I43R + N-terminal His-Tag) MGSSHHHHHHSSGLVPRGSHMFNSDNLRLDGKCAIITGAGAGIGKEIAITFATAGASVVVSGRNADAANHVVDEIQQLGGQAFACRCDITSEQELSALADFAISKLGKVDILVNNAGGGGPKPFDMPMADFRRAYELNVFSFFHLSQLVAPEMEKNGGGVILTITSMAAENKNINMTSYASSKAAASHLVRNMAFDLGEKNIRVNGIAPGAILTDALKSVITPEIEQKMLQHTPIRRLGQPQDIANAALFLCSPAASWVSGQILTVSGGGVQELN | 6.3 | 0.1 | activity with NADP^+ ([5]; listed as no. 4): about 6.3 U/mg; activity with NAD^+ ([5]; listed as no. 4): only marginal activity |
| 7α-HSDH [wildtype]: NAD+-dependent 7α-HSDH of E. coli, wildtype, SEQ ID NO: 38 (N-His-Tag) (protein, N-terminal His-tag; E. coli 7alpha HSDH WT + N-terminal His Tag) MGSSHHHHHHSSGLVPRGSHMFNSDNLRLDGKCAIITGAGAGIGKEIAITFATAGASVVVSDINADAANHVVDEIQQLGGQAFACRCDITSEQELSALADFAISKLGKVDILVNNAGGGGPKPFDMPMADFRRAYELNVFSFFHLSQLVAPEMEKNGGGVILTITSMAAENKNINMTSYASSKAAASHLVRNMAFDLGEKNIRVNGIAPGAILTDALKSVITPEIEQKMLQHTPIRRLGQPQDIANAALFLCSPAASWVSGQILTVSGGGVQELN | 0 | 51.6 | – |
| 7α-HSDH [D42A/I43R]: double mutant D42A/I43R of E. coli 7α-HSDH (SEQ ID NO: 37) (protein, listed as Escherichia coli) MFNSDNLRLDGKCAIITGAGAGIGKEIAITFATAGASVVVSARNADAANHVVDEIQQLGGQAFACRCDITSEQELSALADFAISKLGKVDILVNNAGGGGPKPFDMPMADFRRAYELNVFSFFHLSQLVAPEMEKNGGGVILTITSMAAENKNINMTSYASSKAAASHLVRNMAFDLGEKNIRVNGIAPGAILTDALKSVITPEIEQKMLQHTPIRRLGQPQDIANAALFLCSPAASWVSGQILTVSGGGVQELN | 2.1 | 0 | – |
| 7α-HSDH [D42G]: single mutant D42G of E. coli 7α-HSDH (SEQ ID NO: 37) (protein, listed as Escherichia coli) MFNSDNLRLDGKCAIITGAGAGIGKEIAITFATAGASVVVSGINADAANHVVDEIQQLGGQAFACRCDITSEQELSALADFAISKLGKVDILVNNAGGGGPKPFDMPMADFRRAYELNVFSFFHLSQLVAPEMEKNGGGVILTITSMAAENKNINMTSYASSKAAASHLVRNMAFDLGEKNIRVNGIAPGAILTDALKSVITPEIEQKMLQHTPIRRLGQPQDIANAALFLCSPAASWVSGQILTVSGGGVQELN | 0.3 | 0.4 | – |
| 7α-HSDH [I43R]: single mutant I43R of E. coli 7α-HSDH (SEQ ID NO: 37) (protein, listed as Escherichia coli) MFNSDNLRLDGKCAIITGAGAGIGKEIAITFATAGASVVVSDRNADAANHVVDEIQQLGGQAFACRCDITSEQELSALADFAISKLGKVDILVNNAGGGGPKPFDMPMADFRRAYELNVFSFFHLSQLVAPEMEKNGGGVILTITSMAAENKNINMTSYASSKAAASHLVRNMAFDLGEKNIRVNGIAPGAILTDALKSVITPEIEQKMLQHTPIRRLGQPQDIANAALFLCSPAASWVSGQILTVSGGGVQELN | 0.4 | 51.8 | – |
